Test results reported in patent US5981720A, “Human salivary proteins and fragments thereof having alpha-glucosidase inhibitory activity” (priority 1997, dated 1999).
Entries after “also recorded” stand apart in the source; their conditions may differ. Like-named read-outs stand apart in the source and are kept apart here.

B1: CON-2: small form analog of CON-1, salivary glycoprotein of 82 amino acids (protein)
chain: SPPGKPQGPPPQGGNQPQGPPPPPGKPQGPPPQGGNKPQGPPPPGKPQGPPPQGGNKSQGPPPPGKPQGPPPQGGSKSRSSR
B2: CON-1: basic salivary proline-rich glycoprotein which binds concanavalin A, 124 amino acids, large form (protein)
chain: SPPGKPQGPPPQGGNQPQGPPPPPGKPQGPPPQGGNKPQGPPPPGKPQGPPPQGDNKSQSARSPPGKPQGPPPQGGNQPQGPPPPPGKPQGPPPQGGNKSQGPPPPGKPQGPPPQGGSKSRSSR
modifications: glycoprotein; glycosylation occurs at one N-linked site (acetylglucosamine on asparagine of glycine-glycine-asparagine-lysine)
B3: alpha-amylase: salivary protein tested for effect on alpha-glucosidase (protein, UniProt P0DUB6 16-511, looked up)
Alpha-amylase 1A: QYSSNTQQGRTSIVHLFEWRWVDIALECERYLAPKGFGGVQVSPPNENVAIHNPFRPWWERYQPVSYKLCTRSGNEDEFRNMVTRCNNVGVRIYVDAVINHMCGNAVSAGTSSTCGSYFNPGSRDFPAVPYSGWDFNDGKCKTGSGDIENYNDATQVRDCRLSGLLDLALGKDYVRSKIAEYMNHLIDIGVAGFRIDASKHMWPGDIKAILDKLHNLNSNWFPEGSKPFIYQEVIDLGGEPIKSSDYFGNGRVTEFKYGAKLGTVIRKWNGEKMSYLKNWGEGWGFMPSDRALVFVDNHDNQRGHGAGGASILTFWDARLYKMAVGFMLAHPYGFTRVMSSYRWPRYFENGKDVNDWVGPPNDNGVTKEVTINPDTTCGNDWVCEHRWRQIRNMVNFRNVVDGQPFTNWYDNGSNQVAFGRGNRGFIVFNNDDWTFSLTLQTGLPAGTYCDVISGDKINGNCTGIKIYVSDDGKAHFSISNSAEDPFIAIHAESKL

How the values were obtained:
[1] = tested on: beta-amylase; experiment: Enzyme assay of beta-amylase activity in the presence of CON-1; assay type: biochemical; conditions: same concentration as for alpha-glucosidase
Method: (§1) The enzyme reactions of alpha- and beta-amylases contained 2 mg of phytoglycogen as substrate in 0.05 M sodium acetate buffer, pH 5.4; and were incubated at 37° C. for 60 minutes. The liberation of reducing sugar from phytoglycogen was measured by the reduction of 3,5-nitrosalicyclic acid as described by Bernfeld, Methods Enzymol. 1:149-158 (1955).

[2] = tested on: alpha-amylase; experiment: Enzyme assay of alpha-amylase activity in the presence of CON-1; assay type: biochemical; conditions: same concentration as for alpha-glucosidase
Method: as §1

[3] = tested on: invertase; experiment: Enzyme assay of invertase in the presence of CON-1; assay type: biochemical; conditions: same concentration as for alpha-glucosidase
Method: The enzyme reaction was incubated with 5 mM sucrose as substrate in 50 mM acetate buffer pH 5.0 at 37° C. for 60 minutes. The production of glucose was determined as described in "Enzyme Assay of Alpha-Glucosidase Activity".

[4] = tested on: debranching enzyme; experiment: Enzyme assay of debranching enzyme in the presence of CON-1; assay type: biochemical; conditions: same concentration as for alpha-glucosidase
Method: Debranching enzyme activity was determined according to the method of Lee, et al. Arch. Biochem. Biophys., 143:315-374 (1971). The reaction mixture contains 2 mg of pullulan, 100 mM sodium citrate buffer (pH 7.0), and incubated at 37° C. for 60 minutes. The reducing sugar produced from phytoglycogen was determined according to the method of Bernfeld, Methods Enzymol. 1:149-158 (1955).

[5] = tested on: glucoamylase; conditions: same concentration as for alpha-glucosidase
[6] = target: yeast alpha-glucosidase (Saccharomyces cerevisiae, UniProt P53341); assay type: biochemical; conditions: for inhibitory effect on alpha-glucosidase activity (in words): 0.02 units of yeast alpha-glucosidase; for change of inhibitory activity after removal of acetylglucosamine (in words): incubation with N-acetylglucosaminidase; for Specific Inhibitory Activity: decrease of 1 umole of glucose production from maltose per microgram of salivary protein per hour, stages of CON-1 purification
yeast alpha-glucosidase, sequence (P53341 whole entry): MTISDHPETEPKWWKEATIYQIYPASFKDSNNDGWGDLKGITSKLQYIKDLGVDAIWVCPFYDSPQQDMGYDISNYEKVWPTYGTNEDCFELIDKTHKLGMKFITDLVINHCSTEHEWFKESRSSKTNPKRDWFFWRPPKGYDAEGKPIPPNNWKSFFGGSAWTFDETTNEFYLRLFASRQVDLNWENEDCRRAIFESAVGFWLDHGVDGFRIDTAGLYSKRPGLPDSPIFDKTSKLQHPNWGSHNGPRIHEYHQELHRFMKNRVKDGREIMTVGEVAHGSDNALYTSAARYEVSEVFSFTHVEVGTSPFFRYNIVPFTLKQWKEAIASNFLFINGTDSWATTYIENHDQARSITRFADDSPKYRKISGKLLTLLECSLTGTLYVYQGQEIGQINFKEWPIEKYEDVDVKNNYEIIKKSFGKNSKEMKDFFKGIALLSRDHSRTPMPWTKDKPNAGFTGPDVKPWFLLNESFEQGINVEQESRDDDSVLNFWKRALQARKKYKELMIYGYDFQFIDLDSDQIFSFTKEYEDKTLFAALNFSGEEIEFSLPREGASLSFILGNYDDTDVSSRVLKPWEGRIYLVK
Method: The enzyme of alpha-glucosidase activity is according to the procedure as described by Sigma Chemical Company, St. Louis, Mo. Routinely, the enzyme reaction mixture contains 10 mM maltose and 50 ul of purified alpha-glucosidase or 0.02 units of yeast alpha-glucosidase in a final volume of 60 ul of 25 mM sodium acetate buffer, pH 5.6. The reaction mixture is incubated at 37° C. for 60 minutes, and the production of glucose is determined by the glucose oxidase reagent (Worthington Statzyme Glucose 500) in accordance with recommendation of Worthington Biochemical Corporation.

[7] = assay type: physicochemical
Excerpt: The crude preparation (either cell lysate, whole saliva, or parotid exudate) is collected at subzero temperatures, preferably into a dry-ice chilled container. The preparation is then heated to a temperature between 75 and 100 degrees Centigrade, for a period sufficient to cause denaturation of proteases. At lower temperatures, the time of exposure to heat may be increased up to one hour. Best results are obtained by heating an aliquot of the crude preparation in boiling water from 2 to about 10 minutes. Precipitated protein is then removed by centrifugation followed by an alcohol precipitation. The alcohol may be isopropyl, methyl, or ethyl, ethyl being preferred because of its nontoxic or USP properties. Alcohol precipitation is generally carried out overnight at 4 to 15 degrees.
In conventional purification strategies, the protein was either degraded too rapidly to remove contaminating proteases, or the protein is inherently unstable in the presence of alterative materials. Among those techniques attempted in purifying CON-1 and CON-2 are the following: Sephadex gel filtration, DEAE cation and anion exchange chromatography, preparative gradient SDS-gel electrophoresis, solvent precipitation in an initial step (methanol, propanol, isopropanol, butanol acetone, and phenol), concanavalin A affinity column chromatography, and blue dye gel affinity column chromatography. […]

[8] = tested on: CEM×179 cells; assay type: cell-based
Method: T cell proliferation assay: CEM×179 cells (2×10^5/well in 200 ul of complete medium) were cultured during 6 days at 37° C. in flat-bottomed microtiter wells, and T cell proliferation was evaluated following a 6 hr pulse of (3H)-thymidine (0.5 uCi/well) (Amersham, Bucks, England). Cultures were harvested (Skatron Instruments, Lier, Norway) and the radioactivity was measured using a beta-counter (Packard Gamma 5500).

[9] = tested on: HIV-1; conditions: CEMx174 cells
Method: To test whether the alpha-glucosidase inhibitor activity of CON-1 could also intervene in HIV adsorption to target cells, thereby reducing infectivity and production of viral proteins, the following experiment was carried out: CEMx174 cells, as described by Hoxie, et al., J. Virol., 62: 2557 (1988), were infected at a concentration of 500,000 cells per ml for 2 hours at 37 degrees Centigrade with cell-free HIV-1, isolated as described in Alizon, et al., Nature, 312: 757 (1984), by adding virus at a concentration of 300 ng of HIV p24 protein per ml. Components of complete medium: RPMI 1640 with 10% fetal bovin serum, 2 mM L-glutamine, penicillin at 100 units/ml, and streptomycin at 100 ug/ml) with phytohemagglutin (PHA, 1 ug/ml; Sigma). After the 2 hour incubation, the virus inoculum was washed off and the cells were resuspended in complete culture medium containing various amounts of CON-1 protein. The cells were incubated in 96-well microtiter plates (5×10^4 cells in 200 ul per well), and cell-free supernatants were collected 72 hours after infection.
The amount of HIV p24 in the cell-free supernatant was determined with a commercially available ELISA kit (Coulter) according to the manufacture's instructions. The HCEM cell line described in Pauza, et al. J. Virol., 63:3700 (1989) was used to assess the effect of CON-1 on HIV production from chronically infected cells. HCEM cells were pretreated with CON-1 at 10 ug/ml for 4 hours, washed twice with phosphate-buffered saline and then incubated at 10^6 cells per ml in complete medium in the presence of CON-1 at 10 ug/ml, respectively. After 48 hours, cell-free supernatants were collected to determine HIV p24 levels by ELISA.

[10] = supernatant 72 hours after infection (FIG. 9)

Molecule	inhibitory effect on beta-amylase (in words) [1]	inhibitory effect on alpha-amylase (in words) [2]	inhibitory effect on invertase (in words) [3]	inhibitory effect on debranching enzyme (in words) [4]	inhibitory effect on glucoamylase (in words) [5]	inhibitory effect on alpha-glucosidase activity (in words) [6]	change of inhibitory activity after removal of acetylglucosamine (in words) [6]	stability to denaturing conditions (in words) [7]	amount of protein showing no toxic effect on the cell line [8]	concentration at which significant inhibition of p24 production first occurs [9, 10] [µg/mL]	concentrations showing marked inhibition of p24 production [9, 10]	effect on HIV p24 production (in words) ([9]; up to 20 ug/ml)	inhibitory activity lost after deglycosylation ([6]; CON-1 treated with PNGase versus native glycosylated CON-1 (FIG. 8))	Specific Inhibitory Activity [6]	Specific Inhibitory Activity ([6]; listed as SDS Gel Electrophoresis Slice)
B1	essentially no inhibitory effect	essentially no inhibitory effect	essentially no inhibitory effect	essentially no inhibitory effect	essentially no inhibitory effect	nearly complete	marked reduction in inhibitory activity	extreme stability to denaturing conditions	–	–	–	–	–	–	–
B2	None of the other enzymes is significantly affected; also recorded: essentially no inhibitory effect	None of the other enzymes is significantly affected; also recorded: essentially no inhibitory effect	None of the other enzymes is significantly affected; also recorded: essentially no inhibitory effect	None of the other enzymes is significantly affected; also recorded: essentially no inhibitory effect	essentially no inhibitory effect	inhibition of essentially all enzyme activity; also recorded: completely inhibited the enzyme; also recorded: nearly complete	marked reduction in inhibitory activity	extreme stability to denaturing conditions	up to 50 ug/assay	2.5	above 1.25 ug/ml	profound reductions in signal markers of viral replication	about 50%	about 2810	2810.0
B3	–	–	–	–	–	significantly enhance enzyme activity	–	–	–	–	–	–	–	–	–
